Data: patent publication US20240254229A1 (Molecular Partners, published 2024)

Assays:
[1] = target: T1, hCD33 and hCD123 immobilized simultaneously on one switchSENSE chip (ratio 2:1, CD33:CD123) (human, UniProt P20138 18-259; P26951 19-305, limits assumed); assay: switchSENSE, CD33 and CD123 on one chip; slow phase (avidity); slow phase (avidity)
T1 construct: Not a complex: two separate ligands on one surface; used for avidity values and for off-rates; also called both ligands; both targets attached to the surface of the chip

[2] = target: T1, hCD33 and hCD123 immobilized …; assay: switchSENSE, hCD33 and hCD123 co-immobilised 2:1; panel headed CD123, column KD2 (avidity, simultaneous binding of CD33 and CD123 per paragraph 696)
Experimental: (§1) The designed ankyrin repeat proteins: DARPin® protein #20, DARPin® protein #21, DARPin® protein #22, DARPin® protein #27, DARPin® protein #40 and DARPin® protein #41 were tested in a concentration of 0.16 and 64 nM (in a buffer PE140 containing 10 mM Na2HPO4/NaH2PO4, 140 mM NaCl, 0.05% Tween20, 50 μM EDTA, 50 μM EGTA) for binding against two ligands hCD33 and hCD123, which both were immobilized simultaneously to DNA nanolevers, on the surface, at a pre-defined ratio (2:1, CD33:CD123) and 10% density (100:50) on an ADP-48-1-0 chip, where 100% density 1000 receptors/μm2 (preincubated R1-B48-CD123 and G1-A48-CD33 (100 nM) diluted in cNL-48 (dark)). Briefly the following steps were performed: [0724] Conjugation. Amine coupling of the two ligands (CD33 and CD123) to the DNA nanolever (A48, B48, respectively) and purification of the conjugates using the proFIRE® solution (Dynamic Biosensors GmbH) at 25° C. [0725] Evaluation of all the combined affinity and avidity of all different proteins to both ligands attached on the surface of an ADP chip using a DRX+ instrument (dynamic BIOSENSORS). [0726] Statistical analysis (repeatability from 2 to 5 times) including regeneration of the chip surface every concentration analyzed and long dissociation times and data were fitted using a bi-exponential global fit.

[3] = target: T2, hCD123 (recombinant, construct not stated) (human, UniProt P26951 19-305, limits assumed); assay: switchSENSE, hCD33 and hCD123 co-immobilised 2:1; panel headed CD123, column KD1 (affinity)
T2 construct: also called CD123 (Ligand 2)
T2 sequence (looked up): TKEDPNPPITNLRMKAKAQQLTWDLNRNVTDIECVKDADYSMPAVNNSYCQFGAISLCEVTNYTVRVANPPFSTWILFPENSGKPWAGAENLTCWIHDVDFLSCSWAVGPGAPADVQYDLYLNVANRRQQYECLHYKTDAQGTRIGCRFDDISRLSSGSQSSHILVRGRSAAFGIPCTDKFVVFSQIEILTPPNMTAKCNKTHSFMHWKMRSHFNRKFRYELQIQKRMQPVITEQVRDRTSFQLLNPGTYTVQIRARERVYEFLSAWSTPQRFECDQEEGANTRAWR
Experimental: as §1

[4] = target: T2, hCD123 (recombinant, construct not …); assay: switchSENSE, CD33 and CD123 on one chip; kon to CD123
Experimental: as §1

[5] = target: T3, hCD33 (recombinant, construct not stated) (human, UniProt P20138 18-259, limits assumed); assay: switchSENSE, hCD33 and hCD123 co-immobilised 2:1; panel headed CD33, column KD1 (affinity)
T3 construct: also called CD33 (Ligand 1)
T3 sequence (P20138 18-259 limits assumed): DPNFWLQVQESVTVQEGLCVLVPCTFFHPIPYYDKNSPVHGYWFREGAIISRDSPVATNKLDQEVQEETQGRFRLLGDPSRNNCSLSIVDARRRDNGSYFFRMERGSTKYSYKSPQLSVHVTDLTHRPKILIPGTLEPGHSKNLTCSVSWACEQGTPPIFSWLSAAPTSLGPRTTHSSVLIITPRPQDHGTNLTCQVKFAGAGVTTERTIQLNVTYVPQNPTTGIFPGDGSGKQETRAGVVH

- koff [1]: ~0.001 s⁻¹
- Kd [2]: 0.3 nM
- Kd [3]: 4.5 nM
- kon [4]: ~1e+07 M⁻¹ s⁻¹
- Kd [5]: 20 nM
B1: DARPin® protein #27 (designed binder)
chain: DLGKKLLEAALEGQLDEVRELLKAGADVNAKDQEGYTPLHLAAALGHLEIVEVLLKAGADVNAKDSIGRTPLHLAAYKGHLEIVEVLLKAGADVNAQDLLGETPADLAAEQGHQDIAEVLQKAAGSPTPTPTTPTPTPTTPTPTPTGSDLGVKLLLAASRGQLDEVRILLKAGADVNAKDIDEGYTPLHIAAYYGHLEIVEVLLKAGADVNAKDRYGKTPLHLAAISGHLEIVEVLLKAGADVNAQDDKGDTPADLAADYGHQDIAEVLQKAAGSPTPTPTTPTPTPTTPTPTPTGSDLGQKLLEAAWAGQDDEVRELLKAGADVNAKNSRGWTPLHTAAQTGHLEIFEVLLKAGADVNAKDDKGVTPLHLAAALGHLEIVEVLLKAGADVNAQDSWGTTPADLAAKYGHEDIAEVLQKAA
notes: CD123-CD33-CD3; also called αCD123-aCD33-αCD3_1; not shown: N-terminal His-tag
